Data published in paper doi:10.1101/2023.11.20.567881.

Assays:
[1] = biological target: yeast surface-displayed DARPin 3G146 variant 2-G4 (G150S); assay: flow cytometry on cells
[2] = biological target: yeast surface-displayed DARPin 3G146 variant 2-H3 (G237S); assay: flow cytometry on cells

Substance: EGFP-His6 (from UniProt P42212 1-238) (natural protein)
- fold improvement of apparent binding affinity over 3G146 [1]: 8 fold
- fold improvement of apparent binding affinity over 3G146 [2]: 28 fold
